# Laboratory results as given in US20180162952A1 (AbbVie / Abbott, published 2018).
# T1: PTK7 ECD Ig domains 1-4 Fc fusion (human)
# T1 chain: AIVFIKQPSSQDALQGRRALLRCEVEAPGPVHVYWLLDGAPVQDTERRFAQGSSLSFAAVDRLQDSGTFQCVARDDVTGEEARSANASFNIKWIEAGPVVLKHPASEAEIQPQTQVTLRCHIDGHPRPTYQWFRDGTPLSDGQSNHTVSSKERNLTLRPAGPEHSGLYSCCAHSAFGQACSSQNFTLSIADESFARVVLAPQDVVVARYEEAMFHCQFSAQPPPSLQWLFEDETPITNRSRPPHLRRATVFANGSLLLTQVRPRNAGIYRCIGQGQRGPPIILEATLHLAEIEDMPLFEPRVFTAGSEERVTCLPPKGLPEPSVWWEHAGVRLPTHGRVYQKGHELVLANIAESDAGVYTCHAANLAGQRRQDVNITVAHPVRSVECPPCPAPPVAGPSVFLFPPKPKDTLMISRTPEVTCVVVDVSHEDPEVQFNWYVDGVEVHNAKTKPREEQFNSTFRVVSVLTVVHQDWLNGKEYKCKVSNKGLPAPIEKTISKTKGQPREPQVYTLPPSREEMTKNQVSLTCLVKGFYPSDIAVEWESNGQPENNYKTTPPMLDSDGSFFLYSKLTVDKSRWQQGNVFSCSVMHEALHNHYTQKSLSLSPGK
# T2: PTK7 ECD Ig domains 1-2 Fc fusion (human)
# T2 construct: Tested as supernatant of transfected 293 cells
# T2 chain: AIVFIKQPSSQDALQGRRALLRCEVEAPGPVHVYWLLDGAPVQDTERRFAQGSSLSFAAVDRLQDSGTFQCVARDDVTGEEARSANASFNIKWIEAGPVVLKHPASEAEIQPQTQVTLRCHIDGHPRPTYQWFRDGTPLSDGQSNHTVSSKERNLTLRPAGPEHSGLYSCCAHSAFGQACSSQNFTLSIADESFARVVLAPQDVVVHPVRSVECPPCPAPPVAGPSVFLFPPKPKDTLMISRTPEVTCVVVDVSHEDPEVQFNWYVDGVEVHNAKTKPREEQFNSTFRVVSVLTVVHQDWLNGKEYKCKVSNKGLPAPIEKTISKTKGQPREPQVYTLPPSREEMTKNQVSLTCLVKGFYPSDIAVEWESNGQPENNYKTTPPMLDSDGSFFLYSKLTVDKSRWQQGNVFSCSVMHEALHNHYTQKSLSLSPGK
# T3: PTK7 ECD Ig domains 6-7 Fc fusion (human)
# T3 chain: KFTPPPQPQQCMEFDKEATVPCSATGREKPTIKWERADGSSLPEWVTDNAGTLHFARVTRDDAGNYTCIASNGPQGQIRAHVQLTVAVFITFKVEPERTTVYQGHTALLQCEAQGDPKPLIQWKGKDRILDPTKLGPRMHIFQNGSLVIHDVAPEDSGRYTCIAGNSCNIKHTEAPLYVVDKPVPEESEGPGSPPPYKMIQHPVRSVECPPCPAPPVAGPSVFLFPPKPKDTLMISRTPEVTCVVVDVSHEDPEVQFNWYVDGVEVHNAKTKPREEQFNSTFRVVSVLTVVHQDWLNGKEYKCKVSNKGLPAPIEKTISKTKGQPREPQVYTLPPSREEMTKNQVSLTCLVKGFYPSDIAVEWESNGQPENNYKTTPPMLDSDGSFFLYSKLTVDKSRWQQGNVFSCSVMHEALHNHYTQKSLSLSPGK
# T4: murine PTK7-His (murine, UniProt Q8BKG3 23-696, limits assumed)
# T4 construct: also called mouse PTK7-His; mouse PTK7
# T4 sequence (looked up): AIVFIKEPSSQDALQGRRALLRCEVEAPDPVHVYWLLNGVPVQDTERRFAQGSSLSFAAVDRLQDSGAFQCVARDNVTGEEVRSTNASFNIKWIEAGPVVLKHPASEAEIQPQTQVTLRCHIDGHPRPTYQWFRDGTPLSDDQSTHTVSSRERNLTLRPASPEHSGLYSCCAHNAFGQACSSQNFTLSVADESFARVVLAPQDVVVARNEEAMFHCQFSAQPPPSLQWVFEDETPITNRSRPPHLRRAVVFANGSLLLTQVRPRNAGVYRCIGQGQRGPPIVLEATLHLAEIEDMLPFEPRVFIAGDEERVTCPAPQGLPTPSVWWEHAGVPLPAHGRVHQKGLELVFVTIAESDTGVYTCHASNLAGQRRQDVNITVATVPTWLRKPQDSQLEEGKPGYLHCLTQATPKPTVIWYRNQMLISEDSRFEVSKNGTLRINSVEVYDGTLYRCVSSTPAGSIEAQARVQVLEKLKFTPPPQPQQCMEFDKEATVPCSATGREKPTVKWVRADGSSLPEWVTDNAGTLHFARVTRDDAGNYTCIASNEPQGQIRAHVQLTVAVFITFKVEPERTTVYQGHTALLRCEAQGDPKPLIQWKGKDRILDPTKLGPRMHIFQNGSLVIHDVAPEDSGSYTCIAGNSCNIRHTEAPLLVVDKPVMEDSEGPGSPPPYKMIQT
# B1: SC6.2.35 (antibody, V domains shown)
# VH: QVQMQQSGAELMKPGASVKLSCKATGYTFTGYWIEWVKQRPGHGLEWIGEILPGSGRSNSNEKFKGKATFTADTSSNTAYMQLSSLTTEDSAIYYCARGKLSWGQGTLVTVSA
# VL: DIVLTQSPASLAVSLGQRATISCRASESVDSFGNSFMHWYQQKPGQPPKLLIYAASNLGSGVPARFSGSGSGTDFSLNIHPVEEDDSAMYFCQQSKEVPRTFGGGSRLEIKR
# notes: Murine monoclonal antibody from a hybridoma; also called H2.35; SC6.H2
# B2: SC6.10.2 (antibody, V domains shown)
# VH: QVQLQQSGAELVRPGVSVKISCKGSGYRFTDYPIHWVKQSHAKSLEWIGIISTYYGDVTNNPKFRGKATMTVDKSSTTAYMELARLTSEDSAIYYCARNDLFAYWGQGTLVTVSA
# VL: DIVMTQSQKFMSTSVGDRVNVTCKASQNVGTNVVWYQQKTGQSPKALIHSASYRYSGVPDRFTGSGSGTDFTLTLSNVQSEDLAEYFCQHYNSFPYTFGGGTKLEIKR
# notes: Murine monoclonal antibody from a hybridoma; also called H10.2; H10
# Legend:
# [1] = target: T1, PTK7 ECD Ig domains 1-4 Fc fusion; experiment: ELISA, Ig-domain Fc fusion captured by anti-human IgG Fc
# Protocol: (§1) Using these constructs several modulators were tested for their ability to recognize PTK7 proteins with deletions of defined Ig domains. Through an ELISA assay comprising the use of domain deleted constructs and run under standard conditions. In this regard PTK7 Ig domain Fc fusions were captured on ELISA plate coated with goat anti-human IgG Fc-specific (Jackson Immunoresearch) antibody. The ability of each murine anti-PTK7 antibody to bind the various deletion Fc fusion proteins was then detected with HRP-labeled goat anti-mouse Fc-specific antibody.
# [2] = target: T2, PTK7 ECD Ig domains 1-2 Fc fusion; experiment: as above
# Protocol: as §1
# [3] = target: T3, PTK7 ECD Ig domains 6-7 Fc fusion; experiment: as above
# Protocol: as §1
# [4] = target: T4, murine PTK7-His; experiment: ForteBio bio-layer interferometry, mouse PTK7-His against human PTK7-His
# [5] = target: T4, murine PTK7-His; experiment: ForteBio bio-layer interferometry, one antigen concentration (400 nM)
binder,measurement,setting,value
B1,binding result,[1],binds
same,binding result,[2],binds
same,binding result,[3],no binding
same,binding to mouse PTK7 relative to human,[4],~10%
B2,binding result,[1],binds
same,binding result,[3],no binding
same,binding result,[5],no binding (tested: 400 nM)
